# Experimental data as given in PMC11931385, “Structural and functional analysis of cancer-associated missense variants in the retinoblastoma protein pocket domain” (The Journal of Biological Chemistry, 2025).
# Where a chain is given by its changes, count along the chain named. In names and notes the source's numbering stands. No end group written: not given here. TMR = tetramethyl rhodamine dye
# T1: Rb^P Q504E (human, UniProt P06400 380-788, Q504E)
# T1 construct: also called variant 19
# T1 sequence (looked up): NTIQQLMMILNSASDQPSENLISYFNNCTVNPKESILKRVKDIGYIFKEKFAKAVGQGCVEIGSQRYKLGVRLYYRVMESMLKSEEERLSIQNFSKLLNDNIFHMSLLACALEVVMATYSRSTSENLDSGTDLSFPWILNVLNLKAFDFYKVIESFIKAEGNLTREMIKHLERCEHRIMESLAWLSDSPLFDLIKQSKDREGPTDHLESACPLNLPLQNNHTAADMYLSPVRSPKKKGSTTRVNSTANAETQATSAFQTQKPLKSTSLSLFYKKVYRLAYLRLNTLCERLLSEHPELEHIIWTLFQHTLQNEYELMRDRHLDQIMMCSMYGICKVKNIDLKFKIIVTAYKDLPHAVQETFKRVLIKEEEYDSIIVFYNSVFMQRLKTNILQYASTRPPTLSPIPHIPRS
# T2: Rb^P R556Q (human, UniProt P06400 380-788, R556Q)
# T2 construct: also called variant 30
# T2 sequence (looked up): T1 sequence (looked up) with E125Q, R177Q
# T3: Rb^P T638S (human, UniProt P06400 380-788, T638S)
# T3 construct: also called variant 45
# T3 sequence (looked up): T1 sequence (looked up) with E125Q, T259S
# T4: Rb^P S648T (human, UniProt P06400 380-788, S648T)
# T4 construct: also called variant 46
# T4 sequence (looked up): T1 sequence (looked up) with E125Q, S269T
# T5: Rb^P R656W (human, UniProt P06400 380-788, R656W)
# T5 construct: also called variant 49
# T5 sequence (looked up): T1 sequence (looked up) with E125Q, R277W
# B1: TMR-E2F1^TD, peptide of the E2F1 transactivation domain (peptide)
# peptide: {TMR}-GEGIRDLFDCDFGDLTPLD
# notes: also called E2F^TD; source: synthetic peptide, bought: GenScript
# B2: TMR-E7^LxCxE, LxCxE peptide of the E7 oncoprotein from HPV (peptide)
# peptide: DLYCYEQLN
# modifications: also: TMR label, position not given here
# notes: source: synthetic peptide, bought: GenScript
# Columns and labels:
# Experiment in all cases: fluorescence polarisation; 25 °C; unlabeled Rb^P titrated against 1.5 nM TMR-E2F1^TD or 7.5 nM TMR-E7^LxCxE; 25 mM Tris pH 8.0, 200 mM NaCl, 1 mM DTT, 0.1% Tween-20; 2 min incubation; quadratic fit; apparent Kd for the variants, Kd for WT
# Details in all cases: both partners purified
# Rb^P Q504E = target: T1, Rb^P Q504E
# Rb^P R556Q = target: T2, Rb^P R556Q
# Rb^P T638S = target: T3, Rb^P T638S
# Rb^P S648T = target: T4, Rb^P S648T
# Rb^P R656W = target: T5, Rb^P R656W
Binder,Kd (Rb^P Q504E),Kd (Rb^P R556Q),Kd (Rb^P T638S),Kd (Rb^P S648T),Kd (Rb^P R656W)
B1,18 nM,22 nM,14 nM,33 nM,39 nM
B2,5 nM,5 nM,7 nM,6 nM,8 nM
